From patent publication US8143228B2, “Agents capable of downregulating an MSF-A dependent HIF-1α and use thereof in cancer treatment” (Medical Research Fund of Tel Aviv Sourasky Medical Center, priority 2004, dated 2012)

How the values were obtained:
HIF-1 target genes = assay: Semi-quantitative RT-PCR of HIF-1 target genes; assay type: cell-based
Experimental: FIGS. 12a-f are RT-PCR analyses depicting HIF-1α mediated activation of various genes in cells transfected with the expression vector alone (Neo) or the MSF-A expression vector (MSF-A). Total RNA was isolated from PC-3-Neo and PC-3-MSF-A cells grown under normoxic (lanes 1 and 2) and hypoxic (lanes 3 and 4) conditions. Semi-quantitative RT-PCR analysis was performed using VEGF, Glut-1, ET-1, CA-IX, HIF-1α and β-actin primers (SEQ ID NOs:4200-4211 as described under General Materials and Experimental Methods). Lane 1—Neo, lane 2—MSF-A, lane 3—Neo, lane 4—MSF-A, lane 5—water (negative control).
Isolation and analysis of RNA—Total RNA was extracted from cells by using RNeasy Mini Kit (Qiagen Inc., Valencia, Calif.) according to the manufacturer's protocol. Total RNA from xenograft-derived tumors, which were frozen in liquid N2 immediately after dissection, was prepared using TRI REAGENT (Sigma-Aldrich Co., Saint Louis, Mo.) following the manufacturer's instructions. One μg total RNA was reverse transcribed into cDNA using Reverse-iT 1st Strand Synthesis Kit (ABgene, Epsom, United Kingdom) using anchored oligo dT as first strand primer. […] Semi-quantitative RT-PCR was performed using […] as an internal control to normalize gene expression for the PCR templates. […]

HIF-1α protein = biological target: T1, HIF-1α protein (Homo sapiens, UniProt Q16665); assay: Co-immunoprecipitation / immunoblotting with HIF-1α in transfected HEK 293 cells; assay type: binding; details: transient transfection
T1 construct: expressed in transfected cells; host or cells: HEK 293
Experimental: FIGS. 9a-c are Western blot analyses of FLAG (MSF-A; FIGS. 9a and b) and HIF-1α (FIG. 9c) depicting the interaction between HIF-1α and the WT or deleted forms of MSF-A. HEK 293 cells were transiently co-transfected with expression vector encoding Flag-MSF-A (WT; p3xFlag-MSF-A), Flag-ΔG (AG; p3xFlag-ΔG-MSF-A), Flag-ΔN (ΔN; p3xFlag-ΔN-MSF-A) or empty vector (EV; p3xFlag-cmv-25). After 48 hours, the cells were lysed, subjected for immunoprecipitation (IP) using HIF-1α antibody and then immunoblotted (IB) with HIF-1α or Flag antibodies. FIG. 9a—whole cell extracts (WCE) subjected to IB with the Flag antibody (MSF-A); FIG. 9b—IP prepared by the HIF-1α antibody were subjected to IB with the Flag antibody (MSF-A); FIG. 9c—IP prepared by the HIF-1α antibody were subjected to IB with the HIF-1α antibody.
Immunoblotting—Proteins (30-60 μg/lane) from WCEs were resolved by 7.5% SDS-PAGE, electro-blotted to nitrocellulose membranes and incubated with the indicated primary antibodies, followed by horseradish peroxidase-conjugated secondary antiserum (Amersham Biosciences, Piscataway, N.J.). Immunoreactivity was visualized by Amersham enhanced chemiluminescence reagent (Amersham Biosciences, Piscataway, N.J.). For sequential blotting with additional antibodies, the membranes were stripped from the first primary antibody using a restore Western blot stripping buffer (Pierce, Rockford, Ill.) and were re-probed using the second primary antibody as indicated.
Immunoprecipitation—Cells were washed twice with ice-cold PBS, lysed in 20 mM Na-HEPES, pH 7.5, 0.5% Nonidet P-40, 0.1M NaCl, 2 mM EDTA, 10% Glycerol and 2 mM DTT supplemented with protease and phosphatase inhibitors, and were subjected to immunoprecipitation using anti-HIF-1α antibody and protein G-agarose beads (Pierce, Ill.) according to the manufacturer's instructions.
To confirm the interaction between the HIF-1α and the MSF-A proteins, HEK 293 cells were transiently co-transfected with the p3xFlag-MSF-A and the pcDNA3.1-HIF-1α vectors, and were grown for 24 hours under normoxic conditions (i.e., conditions of 20% oxygen), following which whole cell extracts (WCE) were subjected to co-immunoprecipitation (IP) using anti-FLAG or anti-HIF-1α antibodies. Following IP, the proteins were subjected to SDS-PAGE and immunoblotting (IB) using the counterpart antibody. As is shown in FIGS. 3a-d, following transfection with both expression vectors (i.e., pcDNA3.1-HIF-1α and p3xFlag-MSF-A) immunoprecipitates generated using either the anti-HIF-1α antibody or the anti-Flag antibody included the reciprocal proteins, i.e., the Flag-MSF-A or HIF-1α proteins, respectively.

T1 sequence (Q16665 whole entry): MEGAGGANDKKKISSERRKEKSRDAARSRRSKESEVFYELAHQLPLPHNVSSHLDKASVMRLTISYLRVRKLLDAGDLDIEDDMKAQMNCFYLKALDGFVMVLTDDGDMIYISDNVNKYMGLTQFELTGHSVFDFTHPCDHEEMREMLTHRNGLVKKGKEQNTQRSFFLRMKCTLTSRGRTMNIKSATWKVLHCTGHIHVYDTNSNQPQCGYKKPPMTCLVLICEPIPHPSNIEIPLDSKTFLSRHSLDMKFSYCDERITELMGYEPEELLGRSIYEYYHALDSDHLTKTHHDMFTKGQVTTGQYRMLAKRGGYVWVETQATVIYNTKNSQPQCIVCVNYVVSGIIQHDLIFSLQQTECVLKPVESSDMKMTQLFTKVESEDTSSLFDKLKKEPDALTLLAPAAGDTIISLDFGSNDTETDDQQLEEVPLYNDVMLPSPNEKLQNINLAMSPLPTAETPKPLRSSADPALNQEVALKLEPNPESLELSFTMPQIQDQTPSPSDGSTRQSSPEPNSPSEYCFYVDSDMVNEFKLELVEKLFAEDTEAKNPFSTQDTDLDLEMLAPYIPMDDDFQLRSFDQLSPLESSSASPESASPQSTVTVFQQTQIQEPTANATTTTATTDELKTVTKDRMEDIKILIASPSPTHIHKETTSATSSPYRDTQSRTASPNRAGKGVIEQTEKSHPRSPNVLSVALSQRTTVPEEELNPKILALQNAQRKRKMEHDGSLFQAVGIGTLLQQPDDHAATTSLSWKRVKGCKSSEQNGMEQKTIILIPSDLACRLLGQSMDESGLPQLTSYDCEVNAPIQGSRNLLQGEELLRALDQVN

B1: MSF-A: myeloid/lymphoid leukemia septin-like fusion protein A (SEQ ID NO:3), over-expressed from the p3xFlag-MSF-A vector (protein, listed as Homo sapiens)
chain: MKKSYSGGTRTSSGRLRRLGDSSGPALKRSFEVEEVETPNSTPPRRVQTPLLRATVASSTQKFQDLGVKNSEPSARHVDSLSQRSPKASLRRVELSGPKAAEPVSRRTELSIDISSKQVENAGAIGPSRFGLKRAEVLGHKTPEPAPRRTEITIVKPQESAHRRMEPPASKVPEVPTAPATDAAPKRVEIQMPKPAEAPTAPSPAQTLENSEPAPVSQLQSRLEPKPQPPVAEATPRSQEATEAAPSCVGDMADTPRDAGLKQAPASRNEKAPVDFGYVGIDSILEQMRRKAMKQGFEFNIMVVGQSGLGKSTLINTLFKSKISRKSVQPTSEERIPKTIEIKSITHDIEEKGVRMKLTVIDTPGFGDHINNENCWQPIMKFINDQYEKYLQEEVNINRKKRIPDTRVHCCLYFIPATGHSLRPLDIEFMKRLSKVVNIVPVIAKADTLTLEERVHFKQRITADLLSNGIDVYPQKEFDEDSEDRLVNEKFREMIPFAVVGSDHEYQVNGKRILGRKTKWGTIEVENTTHCEFAYLRDLLIRTHMQNIKDITSSIHFEAYRVKRLNEGSSAMANGVEEKEPEAPEM
modifications: 3xFlag tag
- HIF-1α mRNA level (HIF-1 target genes; PC-3-MSF-A and PC-3-Neo cells): unchanged
- VEGF mRNA levels (HIF-1 target genes; PC-3-MSF-A vs PC-3-Neo cells): significantly higher
- association with HIF-1α protein (co-immunoprecipitation) (HIF-1α protein): strong association
